{"source": "patent US20090317382A1", "about": "(Genmab, published 2009)", "key": {"[1]": {"target": "T1, human AChR from membrane extracts of TE671 cells (human, UniProt P02708 21-457; P11230 24-501; P07510 23-517; Q07001 22-517)"}, "human C1q [2]": {"target": "T2, human C1q (human, UniProt P02745 23-245; P02746 28-253; P02747 29-245)", "T2 construct": "The method names purified human C1q at 2 µg/ml; also called C1q (Quidel, A400); first component of the classical complement system", "T2 sequence (P02745 23-245 limits assumed, chain 1 of 3)": "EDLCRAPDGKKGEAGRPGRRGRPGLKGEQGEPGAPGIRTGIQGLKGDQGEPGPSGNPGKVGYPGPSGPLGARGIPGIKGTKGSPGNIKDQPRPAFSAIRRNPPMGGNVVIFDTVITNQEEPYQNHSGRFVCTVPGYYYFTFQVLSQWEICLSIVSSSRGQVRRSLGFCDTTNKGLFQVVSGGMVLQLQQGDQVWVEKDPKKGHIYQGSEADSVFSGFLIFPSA", "T2 sequence (P02746 28-253 limits assumed, chain 2 of 3)": "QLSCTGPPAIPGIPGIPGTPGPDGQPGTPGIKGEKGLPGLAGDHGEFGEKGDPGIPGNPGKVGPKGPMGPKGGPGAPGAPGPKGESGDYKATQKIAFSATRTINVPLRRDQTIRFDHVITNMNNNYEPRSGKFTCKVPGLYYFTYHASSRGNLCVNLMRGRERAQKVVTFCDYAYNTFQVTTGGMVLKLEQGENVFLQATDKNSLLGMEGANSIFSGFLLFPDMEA", "T2 sequence (P02747 29-245 limits assumed, chain 3 of 3)": "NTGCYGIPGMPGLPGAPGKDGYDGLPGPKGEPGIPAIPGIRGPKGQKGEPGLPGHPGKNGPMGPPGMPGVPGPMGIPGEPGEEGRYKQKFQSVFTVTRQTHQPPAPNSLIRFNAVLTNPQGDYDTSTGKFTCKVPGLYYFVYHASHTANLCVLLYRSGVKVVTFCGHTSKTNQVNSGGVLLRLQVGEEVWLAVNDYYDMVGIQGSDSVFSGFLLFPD", "test": "ELISA: IgG coated at varied concentration, C1q binding read as OD405; sheet heading '3% human serum'"}, "[3]": {"target": "T1, human AChR from membrane extracts of …", "remark": "listed apart in the source"}, "[4]": {"target": "T1, human AChR from membrane extracts of …", "remark": "listed apart in the source"}, "AChR of rhesus monkeys": {"target": "T3, AChR of rhesus monkeys (rhesus monkey (Macaca mulatta))", "T3 construct": "In muscle tissue (sections of biopsies, or in the living animal); also called macaque AChR; monkey receptor", "test": "immunohistochemistry of endplates in human and monkey biopsies, qualitative comparison of staining intensities"}, "C1q (3% rhesus serum)": {"target": "T4, C1q (3% rhesus serum) (Macaca mulatta)", "T4 construct": "native protein in 3% serum; also called rhesus C1q; C1q of rhesus monkey serum", "test": "ELISA: IgG coated at varied concentration (the concentration is that of the coating), C1q binding read as OD405, 3% rhesus serum", "experimental": "(§1) Subsequently, plates were emptied. For the C3 and C4 ELISAs the wells were washed 3 times with 200 μl PBST (PBS supplemented with 0.05% (v/v) tween-20). Subsequently, for C1q ELISA, wells were incubated with 2 μg/mi human C1q (Quidel, San Diego, Calif., USA, A400) in C1q buffer (100 μl/well, 37° C., 1 h). […] After washing the plates (3×) with PBST for the C3 and C4 ELISA and C1q buffer for the C1q ELISA, for the C1q ELISA wells were incubated with rabbit anti-human C1q (DAKO, Glostrup, Denmark, A0136), diluted in C1q buffer (1:1000, 100 μl/well, room temperature, 1 h). […] After washing the plates (3×) with PBST for the C3 and C4 ELISA and C1q buffer for the C1q ELISA, for the C1q ELISA wells were incubated with HRP-conjugated swine anti-rabbit IgG-Fc (DAKO, P0399) diluted in ELISA buffer (1:2500, 100 μl/well, room temperature, 1 h). […] Absorbance was measured at 405 nm in an ELISA plate reader (Biotek Instruments Inc., Winooski, USA). To analyze, if complement activation by human IgG isotypes depends on the source of the complement, both human and rhesus serum were tested."}, "human C1q [5]": {"target": "T2, human C1q", "test": "ELISA: IgG coated at varied concentration (the concentration is that of the coating), C1q binding read as OD405, 3% human serum", "experimental": "as §1"}}, "data": [{"binder": "IgG4-637 (antibody, also called anti-MG) heavy: not shown light: EIELTQPHSVSESPGKTVTISCTRSSGSIASNYVQWYQQRPGSSPTTVIYEDNQRPSGVPDRFSGSIDSSSNSASLTISGLKTEDEADYYCQSYDSNSGGRVFGGGTKLTVLGQPKAAPSVTLFPPSSEELQANKATLVCLISDFYPGAVTVAWKADSSPVKAGVETTTPSKQSNNKYAASSYLSLTPEQWKSHRSYSCQVTHEGSTVEKTVAPTECS", "values": [{"measurement": "EC50 (read off the curve)", "setting": "[1]", "result": "~3", "unit": "nM"}, {"measurement": "binding result", "setting": "human C1q [2]", "result": "no binding"}, {"measurement": "Kd", "setting": "[3]", "result": "~1.7", "unit": "nM"}, {"measurement": "precipitation of the flag tagged antibody, percent remaining at two fold excess", "setting": "[3]", "result": "~50", "unit": "%"}, {"measurement": "IC50 (read off the curve)", "setting": "[4]", "result": "~10", "unit": "nM"}]}, {"binder": "IgG1-637 (antibody) heavy: not shown VL: EIELTQPHSVSESPGKTVTISCTRSSGSIASNYVQWYQQRPGSSPTTVIYEDNQRPSGVPDRFSGSIDSSSNSASLTISGLKTEDEADYYCQSYDSNSGGRVFGGGTKLTVL", "values": [{"measurement": "EC50 (read off the curve)", "setting": "[1]", "result": "~3", "unit": "nM"}, {"measurement": "fold reduced affinity compared to human receptor", "setting": "AChR of rhesus monkeys", "result": "~10", "unit": "fold"}, {"measurement": "EC50 (read off the curve)", "setting": "C1q (3% rhesus serum)", "result": "~2", "unit": "µg/mL"}, {"measurement": "Kd", "setting": "[3]", "result": "~1.7", "unit": "nM"}, {"measurement": "precipitation of the flag tagged antibody, percent remaining at two fold excess", "setting": "[3]", "result": "~50", "unit": "%"}, {"measurement": "IC50 (read off the curve)", "setting": "[4]", "result": "~10", "unit": "nM"}, {"measurement": "EC50 (read off the curve)", "setting": "human C1q [5]", "result": "~2", "unit": "µg/mL"}]}]}
